Test: melting temperature; UV melt of duplexes

Substance	Tm (sodium 0.07 M, strand 2 µM) [°C]	Tm (sodium 0.12 M, strand 2 µM) [°C]	Tm (sodium 0.22 M, strand 2 µM) [°C]	Tm (sodium 0.62 M, strand 2 µM) [°C]	Tm (sodium 1.02 M, strand 2 µM) [°C]	Tm (sodium 0.12 M, strand 6 µM) [°C]	Tm (sodium 0.12 M, strand 7 µM) [°C]	Tm (sodium 0.12 M, strand 5 µM) [°C]
CCGTGCGGTGTGTACGTTTTATTCATCATA+TATGATGAATAAAACGTACACACCGCACGG ((((((((((((((((((((((((((((((+))))))))))))))))))))))))))))))	63.9	68.3	71.8	76.5	77.6			
AACGCGCGTAGAGTGGCCGCAA+TTGCGGCCACTCTACGCGCGTT ((((((((((((((((((((((+))))))))))))))))))))))						77.3		
CTGGTCTGGATCTGAGAACTTCAGG+CCTGAAGTTCTCAGATCCAGACCAG (((((((((((((((((((((((((+)))))))))))))))))))))))))	62.1	65.8	69.6	74.2	75.6			
TCCACACGGTAGTAAAATTAGGCTT+AAGCCTAATTTTACTACCGTGTGGA (((((((((((((((((((((((((+)))))))))))))))))))))))))	59.3	63.1	67.3	71.8	73.8			
AATATGAATTCTAATA+TATTAGAATTCATATT ((((((((((((((((+))))))))))))))))						41.4		
CAGTGAGACAGCAATGGTCG+CGACCATTGCTGTCTCACTG ((((((((((((((((((((+))))))))))))))))))))	59.8	63.5	67	71.1	72.5			
AAATATAAGAATTCTTATATTT+AAATATAAGAATTCTTATATTT ((((((((((((((((((((((+))))))))))))))))))))))							48.9	
AAATATAGCTATATTT+AAATATAGCTATATTT ((((((((((((((((+))))))))))))))))								40.4
AATATATATAGAGTGGCCGCAA+TTGCGGCCACTCTATATATATT ((((((((((((((((((((((+))))))))))))))))))))))						65.2		
CCCTGCACTTTAACTGAATTGTTTA+TAAACAATTCAGTTAAAGTGCAGGG (((((((((((((((((((((((((+)))))))))))))))))))))))))	57.4	61.4	65.6	70.1	72.5			
GTGGTGGGCCGTGCGCTCTG+CAGAGCGCACGGCCCACCAC ((((((((((((((((((((+))))))))))))))))))))	69.2	72.7	76.2	79.6	81			

— the array DNA melting data of Ke et al.
